The values that follow come from PMC10397247.

What all share (assay): two-hybrid library CCmax;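 also: natural log of median RNA to DNA barcode read ratio; higher means stronger binding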
Assay [1] has as its target T1, 4H337-AA.
T1 chain: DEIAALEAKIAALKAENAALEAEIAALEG
The settings on record: mean of both orientations.

The target of assay [2] is T2, 4H2736-AA.
T2 chain: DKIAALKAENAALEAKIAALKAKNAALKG
The settings on record: mean of both orientations.

Assay [3] addresses T3, 4H384-AA.
T3 chain: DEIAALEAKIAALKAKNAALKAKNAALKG
The settings on record: mean of both orientations.

The target of assay [4] is T4, 4H2888-AA.
T4 chain: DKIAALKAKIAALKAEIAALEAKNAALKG
The settings on record: mean of both orientations.

The target in assay [5] is T5, 4H3587-AA.
T5 chain: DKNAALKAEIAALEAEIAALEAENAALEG
The settings on record: mean of both orientations.

Assay [6] has as its target T6, O14-AA.
T6 chain: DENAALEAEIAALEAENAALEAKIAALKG
The settings on record: mean of both orientations.

Assay [7] concerns the target T7, 4H_APH.
T7 chain: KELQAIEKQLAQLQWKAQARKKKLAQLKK
The settings on record: mean of both orientations.

In assay [8] the target is T8, 4H3590-AA.
T8 chain: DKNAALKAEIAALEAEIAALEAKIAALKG
The settings on record: mean of both orientations.

Assay [9] concerns the target T9, 4H2622-AA.
T9 chain: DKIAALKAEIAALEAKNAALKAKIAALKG

For assay [10], the target named is T10, 4H3905-AA.
T10 chain: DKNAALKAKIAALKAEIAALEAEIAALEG
The settings on record: mean of both orientations.

Assay [11] deals with T11, 4H3049-AA.
T11 chain: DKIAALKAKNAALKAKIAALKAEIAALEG
The settings on record: mean of both orientations.

Assay [12] deals with T12, 4H510-AA.
T12 chain: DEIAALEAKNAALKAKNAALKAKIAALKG
The settings on record: mean of both orientations.

Assay [13] addresses T13, 4H451-AA.
T13 chain: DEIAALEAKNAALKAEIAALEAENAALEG
The settings on record: mean of both orientations.

Assay [14] concerns the target T14, 4H2705-AA.
T14 chain: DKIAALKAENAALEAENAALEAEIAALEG
The settings on record: mean of both orientations.

In assay [15] the target is T15, 4H4038-AA.
T15 chain: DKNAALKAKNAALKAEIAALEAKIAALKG
The settings on record: mean of both orientations.

The target in assay [16] is T16, O11-AA.
T16 chain: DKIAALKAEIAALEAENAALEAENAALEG
The settings on record: mean of both orientations.

For assay [17], the target named is T17, 4H43-AA.
T17 chain: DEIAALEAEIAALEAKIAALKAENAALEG
The settings on record: mean of both orientations.

The target in assay [18] is GCN2_T. The settings on record: mean of both orientations.
In assay [19] the target is 4H_GCN4. The settings on record: mean of both orientations.
The target in assay [20] is T18, O13-AA.
T18 chain: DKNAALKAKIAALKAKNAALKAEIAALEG
The settings on record: mean of both orientations.

Assay [21] has as its target T19, 4H_BCR.
T19 chain: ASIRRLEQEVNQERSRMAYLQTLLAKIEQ
The settings on record: mean of both orientations.

Assay [22] addresses T20, 4H3625-AA.
T20 chain: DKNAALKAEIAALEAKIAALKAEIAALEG
The settings on record: mean of both orientations.

Assay [23] addresses T21, 4H3922-AA.
T21 chain: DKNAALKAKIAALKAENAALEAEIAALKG
The settings on record: mean of both orientations.

The target in assay [24] is T22, 4H2536-AA.
T22 chain: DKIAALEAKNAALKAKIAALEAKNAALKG
The settings on record: mean of both orientations.

Assay [25] has as its target T23, 4H2608-AA.
T23 chain: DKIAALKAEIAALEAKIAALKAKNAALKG
The settings on record: mean of both orientations.

In assay [26] the target is T24, 4H3664-AA.
T24 chain: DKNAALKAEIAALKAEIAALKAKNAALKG
The settings on record: mean of both orientations.

The target of assay [27] is T25, 4H481-AA.
T25 chain: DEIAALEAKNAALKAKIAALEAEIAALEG
The settings on record: mean of both orientations.

Assay [28] has as its target T26, 4H55-AA.
T26 chain: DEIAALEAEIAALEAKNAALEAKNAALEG
The settings on record: mean of both orientations.

Assay [29] deals with T27, 4H2238-AA.
T27 chain: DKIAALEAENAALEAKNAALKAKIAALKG
The settings on record: mean of both orientations.

The target in assay [30] is T28, 4H2614-AA.
T28 chain: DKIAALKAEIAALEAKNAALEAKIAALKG
The settings on record: mean of both orientations.

For assay [31], the target named is T29, 4H2211-AA.
T29 chain: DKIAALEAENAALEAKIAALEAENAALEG

In assay [32] the target is T30, 4H4033-AA.
T30 chain: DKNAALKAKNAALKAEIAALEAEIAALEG
The settings on record: mean of both orientations.

The target of assay [33] is T31, 4H327-AA.
T31 chain: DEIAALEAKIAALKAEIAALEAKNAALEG
The settings on record: mean of both orientations.

Assay [34] concerns the target T32, 4H3605-AA.
T32 chain: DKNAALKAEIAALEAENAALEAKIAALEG
The settings on record: mean of both orientations.

Assay [35] concerns the target T33, 4H2726-AA.
T33 chain: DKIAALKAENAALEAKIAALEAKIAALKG
The settings on record: mean of both orientations.

Assay [36] concerns the target T34, 4H662-AA.
T34 chain: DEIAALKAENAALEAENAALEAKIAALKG
The settings on record: mean of both orientations.

For assay [37], the target named is T35, 4H2935-AA.
T35 chain: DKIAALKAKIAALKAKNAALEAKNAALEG
The settings on record: mean of both orientations.

For assay [38], the target named is T36, 4H369-AA.
T36 chain: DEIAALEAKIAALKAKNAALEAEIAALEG
The settings on record: mean of both orientations.

The target of assay [39] is T37, 4H2513-AA.
T37 chain: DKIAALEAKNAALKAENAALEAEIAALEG
The settings on record: mean of both orientations.

Chain of 4H_GCN4 (chain, as listed by the source): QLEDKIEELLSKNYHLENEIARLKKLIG

B1: 4H2622-AA (peptide)
chain: DKIAALKAEIAALEAKNAALKAKIAALKG
Take B1: the interaction score in assay [1] was 2.35; in [2] it was -0.125; in [3], -1.12; in assay [4], 0.116; in assay [5], 0.659; in assay [6] it was 2.2. Moreover, the interaction score is -1.87 in assay [7]; 0.684 in assay [8]; 1.07 in [9]; 1.43 in assay [10]; 0.212 in [11]; -0.508 in [12]. Further, the interaction score was -0.0617 in [13]; 0.956 in [14]; -1.2 in assay [15]; 1.62 in assay [16]; 1.57 in assay [17]; 0.0302 in assay [18]. For the same molecule, the interaction score in assay [19] is 0.309; in assay [20], 0.551; in assay [21], -0.274; in [22] it was 1.6.

B2: 4H2211-AA (peptide)
chain: DKIAALEAENAALEAKIAALEAENAALEG
Regarding B2, the interaction score in assay [23] is -1.15; in [24], 1.92; in [25], -0.966; in [26], -1.82; in assay [27], 1.2; in [28], -1.44. Further, the interaction score in [29] is -1.07; in assay [30] it was -1.44; in assay [31], -0.565; in [32], -1.42; in [33] it was -1.1; in assay [34] it was -1.6. Further, the interaction score in [35] is 0.569; in assay [36], -1.54; in [37] it was -1.25; in assay [38], -1.37; in [39] it was -1.48; in [22], -1.16.
